Measurements from patent US20160200782A1.

What was measured:
Assay in all cases: cell-based or functional assay
AMPKa1(h) (human) = AMPKa1(h) (human) (UniProt Q13131)
Ab1(Y253F)(h) (human) = Ab1(Y253F)(h) (human) (UniProt P00519)
BTK(R28H)(h) (human) = BTK(R28H)(h) (human) (UniProt Q06187)
CDK1/cyclinB(h) (human) = CDK1/cyclinB(h) (human) (UniProt P06493)
CDK3/cyclinE(h) (human) = CDK3/cyclinE(h) (human) (UniProt Q00526)
CDK5/p35(h) (human) = CDK5/p35(h) (human) (UniProt Q00535)
CDK6/cyclinD3(h) (human) = CDK6/cyclinD3(h) (human) (UniProt Q00534)
[1] = target: CDK7/cyclinH/MAT1(h) (human) (UniProt P50613)
CaMKIV(h) (human) = CaMKIV(h) (human) (UniProt Q16566)
CaMKIV(h) (human), sequence (Q16566 whole entry): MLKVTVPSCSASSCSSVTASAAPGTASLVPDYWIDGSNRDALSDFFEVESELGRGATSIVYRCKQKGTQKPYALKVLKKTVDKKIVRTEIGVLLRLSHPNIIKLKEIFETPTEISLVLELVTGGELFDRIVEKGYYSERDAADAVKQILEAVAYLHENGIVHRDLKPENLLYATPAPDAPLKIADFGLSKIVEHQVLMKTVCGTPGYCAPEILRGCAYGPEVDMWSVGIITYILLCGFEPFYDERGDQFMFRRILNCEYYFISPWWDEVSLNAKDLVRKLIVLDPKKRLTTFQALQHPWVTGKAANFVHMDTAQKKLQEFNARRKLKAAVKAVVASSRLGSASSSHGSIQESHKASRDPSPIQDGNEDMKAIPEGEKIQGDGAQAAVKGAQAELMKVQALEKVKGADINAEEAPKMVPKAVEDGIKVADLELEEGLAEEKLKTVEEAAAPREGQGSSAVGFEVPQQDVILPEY

CaMKIδ(h) (human) = CaMKIδ(h) (human) (UniProt Q8IU85)
DAPK2(h) (human) = DAPK2(h) (human) (UniProt Q9UIK4)
DAPK2(h) (human), sequence (Q9UIK4 whole entry): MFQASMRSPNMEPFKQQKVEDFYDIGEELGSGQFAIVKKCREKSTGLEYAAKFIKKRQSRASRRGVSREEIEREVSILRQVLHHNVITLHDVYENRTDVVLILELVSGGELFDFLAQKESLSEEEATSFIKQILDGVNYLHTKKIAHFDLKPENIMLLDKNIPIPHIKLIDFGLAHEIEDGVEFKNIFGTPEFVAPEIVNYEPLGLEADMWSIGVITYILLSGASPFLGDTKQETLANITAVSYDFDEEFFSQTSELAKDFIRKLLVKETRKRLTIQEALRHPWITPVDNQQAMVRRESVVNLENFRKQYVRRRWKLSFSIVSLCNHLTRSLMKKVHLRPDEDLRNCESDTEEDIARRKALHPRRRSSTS

EGFR(T790M)(h) (human) = EGFR(T790M)(h) (human) (UniProt P00533)
EGFR(h) (human) = EGFR(h) (human) (UniProt P00533)
EphA3(h) (human) = EphA3(h) (human) (UniProt P29320)
EphA7(h) (human) = EphA7(h) (human) (UniProt Q15375)
EphB1(h) (human) = EphB1(h) (human) (UniProt P54762)
ErbB4(h) (human) = ErbB4(h) (human) (UniProt Q15303)
ErbB4(h) (human), sequence (Q15303 676-1308 limits assumed): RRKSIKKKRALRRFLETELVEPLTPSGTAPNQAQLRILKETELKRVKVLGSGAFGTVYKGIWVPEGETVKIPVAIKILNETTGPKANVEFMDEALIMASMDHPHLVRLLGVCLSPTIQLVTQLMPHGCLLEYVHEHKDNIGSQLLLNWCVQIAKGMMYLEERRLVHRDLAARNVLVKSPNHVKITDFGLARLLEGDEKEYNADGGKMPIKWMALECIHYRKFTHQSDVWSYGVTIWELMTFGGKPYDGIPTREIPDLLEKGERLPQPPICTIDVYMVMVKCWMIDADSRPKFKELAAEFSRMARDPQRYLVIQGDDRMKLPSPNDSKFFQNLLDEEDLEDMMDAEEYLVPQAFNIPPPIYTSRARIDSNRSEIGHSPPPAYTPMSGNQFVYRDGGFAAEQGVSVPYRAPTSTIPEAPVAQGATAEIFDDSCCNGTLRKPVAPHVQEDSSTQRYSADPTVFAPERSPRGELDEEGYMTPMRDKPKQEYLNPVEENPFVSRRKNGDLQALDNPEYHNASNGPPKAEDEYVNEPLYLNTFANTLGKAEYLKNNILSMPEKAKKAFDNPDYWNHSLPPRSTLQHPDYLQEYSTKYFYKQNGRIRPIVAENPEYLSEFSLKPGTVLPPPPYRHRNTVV

FGFR1(h) (human) = FGFR1(h) (human) (UniProt P11362)
Flt4(h) (human) = Flt4(h) (human) (UniProt P35916)
HIPK3(h) (human) = HIPK3(h) (human) (UniProt Q9H422)
Hck(h) activated (human) = Hck(h) activated (human) (UniProt P08631)
IKKα(h) (human) = IKKα(h) (human) (UniProt O15111)
IKKβ(h) (human) = IKKβ(h) (human) (UniProt O14920)
IRAK1(h) (human) = IRAK1(h) (human) (UniProt P51617)
IRR(h) (human) = IRR(h) (human) (UniProt P14616)
Itk(h) (human) = Itk(h) (human) (UniProt Q08881)
JAK2(h) (human) = JAK2(h) (human) (UniProt O60674)
JNK2α2(h) (human) = JNK2α2(h) (human) (UniProt P45984)
MLCK(h) (human) = target: MLCK(h) (human)
MLK1(h) (human) = MLK1(h) (human) (UniProt P80192)
MSK2(h) (human) = MSK2(h) (human) (UniProt O75676)
MSSK1(h) (human) = MSSK1(h) (human) (UniProt Q9UPE1)
Met(Y1248H)(h) (human) = Met(Y1248H)(h) (human) (UniProt P08581)
PAK4(h) (human) = PAK4(h) (human) (UniProt O96013)
PAK5(h) (human) = PAK5(h) (human) (UniProt Q9P286)
PAK5(h) (human), sequence (Q9P286 whole entry): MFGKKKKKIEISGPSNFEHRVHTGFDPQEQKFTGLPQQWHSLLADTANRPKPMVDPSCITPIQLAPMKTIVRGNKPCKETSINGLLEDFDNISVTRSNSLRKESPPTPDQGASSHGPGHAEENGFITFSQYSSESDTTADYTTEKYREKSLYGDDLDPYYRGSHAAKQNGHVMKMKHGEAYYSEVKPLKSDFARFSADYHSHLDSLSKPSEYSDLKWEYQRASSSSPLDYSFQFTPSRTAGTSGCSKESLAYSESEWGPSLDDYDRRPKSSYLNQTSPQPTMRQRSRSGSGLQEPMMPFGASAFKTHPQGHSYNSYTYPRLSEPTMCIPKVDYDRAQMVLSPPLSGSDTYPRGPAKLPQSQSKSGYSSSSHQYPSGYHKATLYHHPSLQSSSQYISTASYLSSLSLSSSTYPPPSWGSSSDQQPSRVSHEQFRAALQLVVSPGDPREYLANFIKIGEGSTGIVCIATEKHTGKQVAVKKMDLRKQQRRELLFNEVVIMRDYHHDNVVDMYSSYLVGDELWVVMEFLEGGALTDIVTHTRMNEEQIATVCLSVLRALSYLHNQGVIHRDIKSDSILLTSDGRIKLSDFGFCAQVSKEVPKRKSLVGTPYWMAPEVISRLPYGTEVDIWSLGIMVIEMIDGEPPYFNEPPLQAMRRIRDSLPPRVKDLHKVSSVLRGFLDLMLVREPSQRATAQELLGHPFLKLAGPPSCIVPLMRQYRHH

PDGFRα(h) (human) = PDGFRα(h) (human) (UniProt P16234)
PDGFRβ(h) (human) = PDGFRβ(h) (human) (UniProt P09619)
PKBβ(h) (human) = PKBβ(h) (human) (UniProt P31751)
PKCµ(h) (human) = PKCµ(h) (human) (UniProt Q15139)
PKCε(h) (human) = PKCε(h) (human) (UniProt Q02156)
PKCτ(h) (human) = target: PKCτ(h) (human)
PKG1β(h) (human) = PKG1β(h) (human) (UniProt Q13976)
PKG1β(h) (human), sequence (Q13976 other isoform, or with tags, fused parts or gaps limits assumed): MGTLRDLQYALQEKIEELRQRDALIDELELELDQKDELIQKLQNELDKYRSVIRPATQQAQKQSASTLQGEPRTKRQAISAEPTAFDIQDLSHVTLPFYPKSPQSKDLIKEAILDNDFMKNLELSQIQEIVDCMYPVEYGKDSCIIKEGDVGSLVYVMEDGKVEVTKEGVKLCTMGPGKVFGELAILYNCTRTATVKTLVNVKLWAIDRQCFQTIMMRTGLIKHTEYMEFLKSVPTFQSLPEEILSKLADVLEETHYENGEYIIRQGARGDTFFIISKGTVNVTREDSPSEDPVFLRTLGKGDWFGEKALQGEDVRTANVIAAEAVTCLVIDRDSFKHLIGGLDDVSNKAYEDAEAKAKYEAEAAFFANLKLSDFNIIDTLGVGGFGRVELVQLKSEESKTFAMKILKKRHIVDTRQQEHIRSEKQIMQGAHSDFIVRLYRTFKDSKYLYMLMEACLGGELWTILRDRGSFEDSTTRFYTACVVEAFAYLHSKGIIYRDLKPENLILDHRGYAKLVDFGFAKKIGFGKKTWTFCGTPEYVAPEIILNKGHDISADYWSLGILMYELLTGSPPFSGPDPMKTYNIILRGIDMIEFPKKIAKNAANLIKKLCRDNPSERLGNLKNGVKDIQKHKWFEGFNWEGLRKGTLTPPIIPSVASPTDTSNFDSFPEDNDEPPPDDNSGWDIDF

Ret(V804L)(h) (human) = Ret(V804L)(h) (human) (UniProt P07949)
Rse(h) (human) = Rse(h) (human) (UniProt Q06418)
SAPK2a(T106M)(h) (human) = SAPK2a(T106M)(h) (human) (UniProt Q16539)
SAPK3(h) (human) = SAPK3(h) (human) (UniProt P53778)
Syk(h) (human) = Syk(h) (human) (UniProt P43405)
TAO1(h) (human) = TAO1(h) (human) (UniProt Q7L7X3)
TAO2(h) (human) = TAO2(h) (human) (UniProt Q9UL54)
TAO3(h) (human) = TAO3(h) (human) (UniProt Q9H2K8)
TAO3(h) (human), sequence (Q9H2K8 1-315 limits assumed): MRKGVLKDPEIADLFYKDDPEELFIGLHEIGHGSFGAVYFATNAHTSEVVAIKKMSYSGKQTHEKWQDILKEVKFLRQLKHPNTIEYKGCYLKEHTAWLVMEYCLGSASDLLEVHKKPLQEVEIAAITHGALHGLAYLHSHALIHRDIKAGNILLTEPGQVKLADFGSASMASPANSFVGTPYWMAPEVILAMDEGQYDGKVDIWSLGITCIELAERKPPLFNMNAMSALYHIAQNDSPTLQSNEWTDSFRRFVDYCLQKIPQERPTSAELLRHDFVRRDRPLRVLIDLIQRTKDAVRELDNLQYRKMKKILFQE

TSSK1(h) (human) = TSSK1(h) (human) (UniProt Q9BXA7)
TrkB(h) (human) = TrkB(h) (human) (UniProt Q16620)
ULK3(h) (human) = ULK3(h) (human) (UniProt Q6PHR2)
WNK2(h) (human) = WNK2(h) (human) (UniProt Q9Y3S1)
cKit(V654A)(h) (human) = cKit(V654A)(h) (human) (UniProt P10721)
cKit(V654A)(h) (human), sequence (P10721 544-976 V654A limits assumed): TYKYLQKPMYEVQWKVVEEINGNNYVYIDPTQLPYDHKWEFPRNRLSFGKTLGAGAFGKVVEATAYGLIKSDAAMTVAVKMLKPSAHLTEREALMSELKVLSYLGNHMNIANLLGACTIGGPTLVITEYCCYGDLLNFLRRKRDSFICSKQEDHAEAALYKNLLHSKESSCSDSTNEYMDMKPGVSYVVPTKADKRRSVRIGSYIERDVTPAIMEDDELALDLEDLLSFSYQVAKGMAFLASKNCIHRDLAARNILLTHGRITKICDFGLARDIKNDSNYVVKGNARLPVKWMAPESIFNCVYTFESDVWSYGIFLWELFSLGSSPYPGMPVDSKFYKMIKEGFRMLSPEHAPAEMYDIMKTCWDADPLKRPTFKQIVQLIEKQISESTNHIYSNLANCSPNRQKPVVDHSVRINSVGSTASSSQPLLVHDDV

cKit(h) (human) = cKit(h) (human) (UniProt P10721)
cKit(h) (human), sequence (P10721 544-976 limits assumed): as the sequence (P10721 544-976 V654A limits assumed) above, with A111V counted along it

Ab1(Y253F)(h) (human), sequence (P00519 27-1130 Y253F limits assumed): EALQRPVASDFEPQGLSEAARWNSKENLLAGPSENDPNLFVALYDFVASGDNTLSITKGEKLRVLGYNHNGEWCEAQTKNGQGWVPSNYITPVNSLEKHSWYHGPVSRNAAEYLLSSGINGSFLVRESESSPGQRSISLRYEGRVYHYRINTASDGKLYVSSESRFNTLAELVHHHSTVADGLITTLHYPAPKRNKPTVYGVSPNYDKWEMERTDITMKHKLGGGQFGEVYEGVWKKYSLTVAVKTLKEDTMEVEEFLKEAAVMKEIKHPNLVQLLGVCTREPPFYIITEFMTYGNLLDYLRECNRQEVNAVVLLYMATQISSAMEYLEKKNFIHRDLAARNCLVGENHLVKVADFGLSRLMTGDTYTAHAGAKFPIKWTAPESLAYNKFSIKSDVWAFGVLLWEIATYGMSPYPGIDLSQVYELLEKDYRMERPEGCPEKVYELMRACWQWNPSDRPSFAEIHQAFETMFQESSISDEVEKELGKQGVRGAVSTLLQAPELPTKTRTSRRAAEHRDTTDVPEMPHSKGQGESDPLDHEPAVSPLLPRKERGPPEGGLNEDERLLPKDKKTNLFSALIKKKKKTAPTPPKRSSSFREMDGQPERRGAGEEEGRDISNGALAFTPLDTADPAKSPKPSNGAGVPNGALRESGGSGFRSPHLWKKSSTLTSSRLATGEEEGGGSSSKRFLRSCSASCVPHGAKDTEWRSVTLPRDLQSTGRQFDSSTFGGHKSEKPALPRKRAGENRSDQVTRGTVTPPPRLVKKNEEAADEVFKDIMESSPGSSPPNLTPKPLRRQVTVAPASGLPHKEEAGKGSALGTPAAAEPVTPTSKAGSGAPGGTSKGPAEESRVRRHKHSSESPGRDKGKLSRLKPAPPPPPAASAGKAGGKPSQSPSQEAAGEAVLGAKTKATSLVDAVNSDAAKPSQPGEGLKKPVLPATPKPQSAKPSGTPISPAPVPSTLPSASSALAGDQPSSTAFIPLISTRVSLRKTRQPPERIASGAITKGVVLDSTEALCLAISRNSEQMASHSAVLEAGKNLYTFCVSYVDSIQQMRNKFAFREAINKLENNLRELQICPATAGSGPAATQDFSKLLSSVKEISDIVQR

## MMI-0100 (peptide)
AMPKa1(h) (human)
  % activity: 107%
Ab1(Y253F)(h) (human)
  % activity: 104%
BTK(R28H)(h) (human)
  % activity: 91%
CDK1/cyclinB(h) (human)
  % activity: 96%
CDK3/cyclinE(h) (human)
  % activity: 106%
CDK5/p35(h) (human)
  % activity: 94%
CDK6/cyclinD3(h) (human)
  % activity: 103%
[1]
  % activity: 89%
CaMKIV(h) (human)
  % activity: 87%
CaMKIδ(h) (human)
  % activity: 59%
DAPK2(h) (human)
  % activity: 41%
EGFR(T790M)(h) (human)
  % activity: 106%
EGFR(h) (human)
  % activity: 95%
EphA3(h) (human)
  % activity: 107%
EphA7(h) (human)
  % activity: 193%
EphB1(h) (human)
  % activity: 99%
ErbB4(h) (human)
  % activity: 73%
FGFR1(h) (human)
  % activity: 120%
Flt4(h) (human)
  % activity: 135%
HIPK3(h) (human)
  % activity: 105%
Hck(h) activated (human)
  % activity: 58%
IKKα(h) (human)
  % activity: 108%
IKKβ(h) (human)
  % activity: 105%
IRAK1(h) (human)
  % activity: 97%
IRR(h) (human)
  % activity: 85%
Itk(h) (human)
  % activity: 99%
JAK2(h) (human)
  % activity: 89%
JNK2α2(h) (human)
  % activity: 114%
MLCK(h) (human)
  % activity: 85%
MLK1(h) (human)
  % activity: 77%
MSK2(h) (human)
  % activity: 105%
MSSK1(h) (human)
  % activity: 82%
Met(Y1248H)(h) (human)
  % activity: 88%
PAK4(h) (human)
  % activity: 92%
PAK5(h) (human)
  % activity: 97%
PDGFRα(h) (human)
  % activity: 104%
PDGFRβ(h) (human)
  % activity: 116%
PKBβ(h) (human)
  % activity: 284%
PKCµ(h) (human)
  % activity: 79%
PKCε(h) (human)
  % activity: 102%
PKCτ(h) (human)
  % activity: 110%
PKG1β(h) (human)
  % activity: 71%
Ret(V804L)(h) (human)
  % activity: 113%
Rse(h) (human)
  % activity: 109%
SAPK2a(T106M)(h) (human)
  % activity: 101%
SAPK3(h) (human)
  % activity: 106%
Syk(h) (human)
  % activity: 45%
TAO1(h) (human)
  % activity: 99%
TAO2(h) (human)
  % activity: 95%
TAO3(h) (human)
  % activity: 45%
TSSK1(h) (human)
  % activity: 99%
TrkB(h) (human)
  % activity: 4%
ULK3(h) (human)
  % activity: 142%
WNK2(h) (human)
  % activity: 95%
cKit(V654A)(h) (human)
  % activity: 69%
cKit(h) (human)
  % activity: 95%

## MMI-0200 (peptide)
AMPKa1(h) (human)
  % activity: 108%
Ab1(Y253F)(h) (human)
  % activity: 102%
BTK(R28H)(h) (human)
  % activity: 104%
CDK1/cyclinB(h) (human)
  % activity: 115%
CDK3/cyclinE(h) (human)
  % activity: 104%
CDK5/p35(h) (human)
  % activity: 92%
CDK6/cyclinD3(h) (human)
  % activity: 100%
[1]
  % activity: 67%
CaMKIV(h) (human)
  % activity: 71%
CaMKIδ(h) (human)
  % activity: 47%
DAPK2(h) (human)
  % activity: 92%
EGFR(T790M)(h) (human)
  % activity: 113%
EGFR(h) (human)
  % activity: 83%
EphA3(h) (human)
  % activity: 117%
EphA7(h) (human)
  % activity: 220%
EphB1(h) (human)
  % activity: 95%
ErbB4(h) (human)
  % activity: 82%
FGFR1(h) (human)
  % activity: 97%
Flt4(h) (human)
  % activity: 105%
HIPK3(h) (human)
  % activity: 105%
Hck(h) activated (human)
  % activity: 100%
IKKα(h) (human)
  % activity: 104%
IKKβ(h) (human)
  % activity: 109%
IRAK1(h) (human)
  % activity: 101%
IRR(h) (human)
  % activity: 69%
Itk(h) (human)
  % activity: 98%
JAK2(h) (human)
  % activity: 131%
JNK2α2(h) (human)
  % activity: 109%
MLCK(h) (human)
  % activity: 103%
MLK1(h) (human)
  % activity: 84%
MSK2(h) (human)
  % activity: 88%
MSSK1(h) (human)
  % activity: 100%
Met(Y1248H)(h) (human)
  % activity: 153%
PAK4(h) (human)
  % activity: 98%
PAK5(h) (human)
  % activity: 100%
PDGFRα(h) (human)
  % activity: 108%
PDGFRβ(h) (human)
  % activity: 137%
PKBβ(h) (human)
  % activity: 250%
PKCµ(h) (human)
  % activity: 73%
PKCε(h) (human)
  % activity: 98%
PKCτ(h) (human)
  % activity: 97%
PKG1β(h) (human)
  % activity: 57%
Ret(V804L)(h) (human)
  % activity: 100%
Rse(h) (human)
  % activity: 88%
SAPK2a(T106M)(h) (human)
  % activity: 100%
SAPK3(h) (human)
  % activity: 97%
Syk(h) (human)
  % activity: 36%
TAO1(h) (human)
  % activity: 105%
TAO2(h) (human)
  % activity: 93%
TAO3(h) (human)
  % activity: 102%
TSSK1(h) (human)
  % activity: 98%
TrkB(h) (human)
  % activity: 7%
ULK3(h) (human)
  % activity: 164%
WNK2(h) (human)
  % activity: 94%
cKit(V654A)(h) (human)
  % activity: 113%
cKit(h) (human)
  % activity: 110%
